Test results published in the RNAGym collection of RNA variant scans (doi:10.1093/molbev/msab373).

B1: Azoarcus group I ribozyme (parent)
chain: GUGCCUUGCGCCGGGAAACCACGCAAGGGAUGGUGUCAAAUUCGGCGAAACCUAAGCGCCCGCCCGGGCGUAUGGCAACGCCGAGCCAAGCUUCGGCGCCUGCGCCGAUGAAGGUGUAGAGACUAGACGGCACCCACCUAAGGCAAACGCUAUGGUGAAGGCAUAGUCCAGGGAGUGGCGAAAGUCACACAAACCGG

Variants of: B1
Test: reverse-splicing fitness (ratio to wild type); higher = more active; in vitro selection; Mg2+ level not given
In short: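 An in vitro group I ribozyme library with randomized positions was T7-transcribed and gel-purified. In triplicate, 10 pmol RNA in EPPS pH 7.5 was reacted with 50 pmoles of a 30-nt RNA substrate for 1 h at 37 °C across several added MgCl2 levels (1–48 mM), then stopped with EDTA. Products were reverse transcribed from a substrate-complementary primer, PCR-amplified and sequenced (HiSeq 4000). Fitness is a variant's read proportion after selection over that before, normalised to wild type.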
Work on C82U A111U A120C A145G C150G C169A U176G yielded a reverse-splicing fitness of 0.00845.
Work on C82U A111U A120C A145G C150G C169A U176A yielded a reverse-splicing fitness of 0.0133.
Work on C82U A111U A120C A145G C150G C169A U176C yielded a reverse-splicing fitness of 0.0137.
C82U A111U A120C A145G C150A C169G gave a reverse-splicing fitness of 0.00791.
Work on C82U A111U A120C A145G C150A C169A yielded a reverse-splicing fitness of 0.0103.
In the case of C82U A111U A120C A145G C150A C169U, the reverse-splicing fitness is reported as 0.0104.
For C82U A111G C169A U176G, the reverse-splicing fitness was 0.00438.
In the case of C82U A111G C169A U176C, the reverse-splicing fitness is reported as 0.0146.
For C82U A111G C169A U176A, the reverse-splicing fitness was 0.0124.
Work on C82U A111G C150G C169A U176C yielded a reverse-splicing fitness of 0.0121.
Variant C82U A111G C150G C169A U176G has a reverse-splicing fitness of 0.00562.
C82U A111G C150G C169A U176A showed a reverse-splicing fitness of 0.00962.
Work on C82U A111G C150A C169G yielded a reverse-splicing fitness of 0.00918.
C82U A111G C150A C169A gave a reverse-splicing fitness of 0.00969.
C82U A111G C150A C169U showed a reverse-splicing fitness of 0.00979.
C82U A111G C169G U176G showed a reverse-splicing fitness of 0.00463.
C82U A111G C169G U176A gave a reverse-splicing fitness of 0.0159.
C82U A111G C169G U176C gave a reverse-splicing fitness of 0.0183.
Variant C82U A111U A120C A145G C150A C169G U176A has a reverse-splicing fitness of 0.0169.
Variant C82U A111U A120C A145G C150A C169G U176G has a reverse-splicing fitness of 0.00516.
Work on C82U A111U A120C A145G C150A C169G U176C yielded a reverse-splicing fitness of 0.0229.
With C82U A111U A120C A145C C150U C169A U176G the reverse-splicing fitness was 0.00569.
With C82U A111U A120C A145C C150U C169A U176A the reverse-splicing fitness was 0.0088.
Variant C82U A111U A120C A145C C150U C169A U176C has a reverse-splicing fitness of 0.00517.
C82U A111U A120C A145C C150G C169G U176G showed a reverse-splicing fitness of 0.0044.
Variant C82U A111U A120C A145C C150G C169G U176A has a reverse-splicing fitness of 0.00839.
For C82U A111U A120C A145C C150G C169G U176C, the reverse-splicing fitness was 0.00632.
In the case of C82U A111U A120C A145C C150A U176A, the reverse-splicing fitness is reported as 0.00819.
In the case of C82U A111U A120C A145C C150A U176C, the reverse-splicing fitness is reported as 0.00753.
C82U A111U A120C A145C C150A U176G showed a reverse-splicing fitness of 0.00471.
In the case of C82U A111U A120C A145C C169U, the reverse-splicing fitness is reported as 0.011.
Variant C82U A111U A120C A145C C169A has a reverse-splicing fitness of 0.0065.
C82U A111U A120C A145C C169G gave a reverse-splicing fitness of 0.00709.
Variant C82U A111G C150U U176A has a reverse-splicing fitness of 0.102.
Variant C82U A111G C150U U176C has a reverse-splicing fitness of 0.146.
For C82U A111G C150U U176G, the reverse-splicing fitness was 0.0286.
Variant C82U A111U A120C A145C C150G U176C has a reverse-splicing fitness of 0.00663.
In the case of C82U A111U A120C A145C C150G U176A, the reverse-splicing fitness is reported as 0.00494.
Work on C82U A111U A120C A145C C150G U176G yielded a reverse-splicing fitness of 0.00237.
With C82U A111G A145U C169A U176C the reverse-splicing fitness was 0.00683.
For C82U A111G A145U C169A U176A, the reverse-splicing fitness was 0.00885.
C82U A111G A145U C169A U176G showed a reverse-splicing fitness of 0.00528.
With C82U A111U A120C A145C C150A C169A the reverse-splicing fitness was 0.00749.
C82U A111U A120C A145C C150A C169G showed a reverse-splicing fitness of 0.00632.
In the case of C82U A111U A120C A145C C150A C169U, the reverse-splicing fitness is reported as 0.0102.
C82U A111G C150A U176G showed a reverse-splicing fitness of 0.0117.
C82U A111G C150A U176A showed a reverse-splicing fitness of 0.0272.
Work on C82U A111G C150A U176C yielded a reverse-splicing fitness of 0.0361.
Work on C82U A111G C150A C169G U176A yielded a reverse-splicing fitness of 0.0207.
For C82U A111G C150A C169G U176C, the reverse-splicing fitness was 0.0199.
Variant C82U A111G C150A C169G U176G has a reverse-splicing fitness of 0.00673.
For C82U A111U, the reverse-splicing fitness was 0.327.
For C82U A111G C150G C169U, the reverse-splicing fitness was 0.00811.
For C82U A111G C150G C169A, the reverse-splicing fitness was 0.00812.
C82U A111G C150G C169G showed a reverse-splicing fitness of 0.00675.
With C82U A111U A120C A145C C150U the reverse-splicing fitness was 0.0119.
Variant C82U A111U A120C A145C C150A has a reverse-splicing fitness of 0.00788.
For C82U A111U A120C A145C C150G, the reverse-splicing fitness was 0.00726.
With C82U A111G C150U C169U U176A the reverse-splicing fitness was 0.0126.
C82U A111G C150U C169U U176G showed a reverse-splicing fitness of 0.00589.
C82U A111G C150U C169U U176C gave a reverse-splicing fitness of 0.0133.
C82U A111U A120C A145G C150A C169U U176G showed a reverse-splicing fitness of 0.00615.
Variant C82U A111U A120C A145G C150A C169U U176A has a reverse-splicing fitness of 0.0148.
In the case of C82U A111U A120C A145G C150A C169U U176C, the reverse-splicing fitness is reported as 0.0167.
C82U A111U A120C A145G C150A C169A U176G gave a reverse-splicing fitness of 0.0059.
In the case of C82U A111U A120C A145G C150A C169A U176C, the reverse-splicing fitness is reported as 0.0189.
C82U A111U A120C A145G C150A C169A U176A showed a reverse-splicing fitness of 0.0207.
In the case of C82U A111U A120C A145C, the reverse-splicing fitness is reported as 0.0238.
C82U A111U A120C A145G showed a reverse-splicing fitness of 0.03.
Variant C82U A111G A145U C169G has a reverse-splicing fitness of 0.00731.
With C82U A111G A145U C169U the reverse-splicing fitness was 0.0102.
Variant C82U A111G A145U C169A has a reverse-splicing fitness of 0.00645.
Variant C82U A111U A120C A145C C150U C169U U176A has a reverse-splicing fitness of 0.015.
C82U A111U A120C A145C C150U C169U U176C gave a reverse-splicing fitness of 0.0108.
C82U A111U A120C A145C C150U C169U U176G gave a reverse-splicing fitness of 0.00464.
C82U A111U A120C A145C C169A U176G gave a reverse-splicing fitness of 0.00392.
In the case of C82U A111U A120C A145C C169A U176A, the reverse-splicing fitness is reported as 0.00868.
Work on C82U A111U A120C A145C C169A U176C yielded a reverse-splicing fitness of 0.00567.
For C82U A111G C150U C169G U176C, the reverse-splicing fitness was 0.0162.
With C82U A111G C150U C169G U176G the reverse-splicing fitness was 0.00558.
C82U A111G C150U C169G U176A gave a reverse-splicing fitness of 0.0191.
C82U A111G C150G C169U U176G gave a reverse-splicing fitness of 0.00511.
For C82U A111G C150G C169U U176A, the reverse-splicing fitness was 0.00707.
Work on C82U A111G C150G C169U U176C yielded a reverse-splicing fitness of 0.0122.
